Literature values in patent US7452531B2, “Compositions and methods for tumor-targeted delivery of effector molecules” (Vion Pharmaceuticals, Inc., priority 1999, dated 2008).

Test system: primary tumors
Conditions: 100 mg/kg/day

Q: Which toxic side effects does the source give for angiostatin here?
A: without toxic side effects

Q: What about the tumor growth of the same substance?
A: strong inhibition of tumor growth
